Data published in IntAct's records for PubMed 16571665.

B1: Protein phosphatase 2C 77 (Arabidopsis thaliana (Mouse-ear cress)), O04719 (parent)
chain: MDEVSPAVAVPFRPFTDPHAGLRGYCNGESRVTLPESSCSGDGAMKDSSFEINTRQDSLTSSSSAMAGVDISAGDEINGSDEFDPRSMNQSEKKVLSRTESRSLFEFKCVPLYGVTSICGRRPEMEDSVSTIPRFLQVSSSSLLDGRVTNGFNPHLSAHFFGVYDGHGGSQVANYCRERMHLALTEEIVKEKPEFCDGDTWQEKWKKALFNSFMRVDSEIETVAHAPETVGSTSVVAVVFPTHIFVANCGDSRAVLCRGKTPLALSVDHKPDRDDEAARIEAAGGKVIRWNGARVFGVLAMSRSIGDRYLKPSVIPDPEVTSVRRVKEDDCLILASDGLWDVMTNEEVCDLARKRILLWHKKNAMAGEALLPAEKRGEGKDPAAMSAAEYLSKMALQKGSKDNISVVVVDLKGIRKFKSKSLN
partner: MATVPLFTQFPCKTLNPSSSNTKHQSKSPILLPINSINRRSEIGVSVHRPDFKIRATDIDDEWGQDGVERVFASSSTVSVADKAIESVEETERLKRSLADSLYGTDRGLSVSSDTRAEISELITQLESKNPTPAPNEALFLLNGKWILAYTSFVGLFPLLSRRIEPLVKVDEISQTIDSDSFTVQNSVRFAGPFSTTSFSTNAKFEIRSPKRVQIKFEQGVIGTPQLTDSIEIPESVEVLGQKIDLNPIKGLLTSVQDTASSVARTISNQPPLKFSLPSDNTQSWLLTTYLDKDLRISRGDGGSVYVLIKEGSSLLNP

Variants of: B1
Settings: with pap1_arath PAP1, O81439

| effect of a mutation on the interaction | Variant |
| --- | --- |
| disrupting interaction strength | MDEVSPAVAVPFRPFTDPHAGLRGYCNGESRVTLPESSCSGDGAMKDSSFEINTRQDSLTSSSSAMAGVDISAGDEINGSDEFDPRSMNQSEKKVLSRTESRSLFEFKCVPLYGVTSICGRRPEMEDSVSTIPRFLQVSSSSLLDGRVTNGFNPHLSAHFFGVYDGHDGSQVANYCRERMHLALTEEIVKEKPEFCDGDTWQEKWKKALFNSFMRVDSEIETVAHAPETVGSTSVVAVVFPTHIFVANCGDSRAVLCRGKTPLALSVDHKPDRDDEAARIEAAGGKVIRWNGARVFGVLAMSRSIGDRYLKPSVIPDPEVTSVRRVKEDDCLILASDGLWDVMTNEEVCDLARKRILLWHKKNAMAGEALLPAEKRGEGKDPAAMSAAEYLSKMALQKGSKDNISVVVVDLKGIRKFKSKSLN [G168D] |

Variants of: B1
Settings: with pap1_arath PAP1, O81439
Remark: another data set of the same source

| effect of a mutation on the interaction | Variant |
| --- | --- |
| disrupting interaction | MDEVSPAVAVPFRPFTDPHAGLRGYCNGESRVTLPESSCSGDGAMKDSSFEINTRQDSLTSSSSAMAGVDISAGDEINGSDEFDPRSMNQSEKKVLSRTESRSLFEFKCVPLYGVTSICGRRPEMEDSVSTIPRFLQVSSSSLLDGRVTNGFNPHLSAHFFGVYDGHDGSQVANYCRERMHLALTEEIVKEKPEFCDGDTWQEKWKKALFNSFMRVDSEIETVAHAPETVGSTSVVAVVFPTHIFVANCGDSRAVLCRGKTPLALSVDHKPDRDDEAARIEAAGGKVIRWNGARVFGVLAMSRSIGDRYLKPSVIPDPEVTSVRRVKEDDCLILASDGLWDVMTNEEVCDLARKRILLWHKKNAMAGEALLPAEKRGEGKDPAAMSAAEYLSKMALQKGSKDNISVVVVDLKGIRKFKSKSLN [G168D] |
